In this assay the target is A. franciscana ATP synthase c-subunit (c8-ring) (A. franciscana (endogenous in A. franciscana mitochondria)). Put plainly: cryo-EM structure; single-particle cryo-EM of the ATP synthase monomer purified from A. franciscana mitochondria in DDM at pH 7.0; rotational states 1, 2 and 3a; local refinement of F1 and FO.

A word on the stoichiometry N: it is a count of units in the complex or per binding partner. “A. franciscana ATP synthase c-subunit (c8-ring) (natural protein)” showed a stoichiometry N of 8.

The values are drawn from publication PMC12325954.
